This note sets out measurements from paper PMC5061722.

Test in all cases: SEC
The target of assay [1] is truncated ΔN1-EpsE-Hcp1 fusion (pET21(d)epsE(100-503)-8aa-hcp1-his6) (UniProt P37093).
Assay [2] addresses full-length EpsE-Hcp1 fusion (pET21(d)epsE(1-503)-8aa-hcp1-his6) (UniProt P37093).
Assay [3] has as its target EpsE-XcpR CM-Hcp1 chimera fusion (UniProt P37093).

A word on the stoichiometry N: it is a count of units in the complex or per binding partner. “truncated ΔN1-EpsE-Hcp1 fusion (pET21(d)epsE(100-503)-8aa-hcp1-his6) (from UniProt P37093 100-503)” displayed a stoichiometry N in assay [1] of 6. “full-length EpsE-Hcp1 fusion (pET21(d)epsE(1-503)-8aa-hcp1-his6) (from UniProt P37093 1-503)” showed a stoichiometry N in assay [2] of 6.

“EpsE-XcpR CM-Hcp1 chimera fusion (from UniProt P37093)” displayed a stoichiometry N in assay [3] of 6.
